Experimental data from article PMC5404189.

Target: extracellular fibrinogen binding protein (Staphylococcus aureus) (UniProt A6QG59)
Experiment: ELISA

Sequence of UniProt A6QG59 (A6QG59 30-165): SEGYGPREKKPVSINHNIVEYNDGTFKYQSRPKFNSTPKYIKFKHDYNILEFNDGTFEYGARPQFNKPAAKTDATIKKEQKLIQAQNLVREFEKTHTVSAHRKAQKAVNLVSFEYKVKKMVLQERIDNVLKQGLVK

Question: How did the reBC at 10% plasma turn out when human complement C3 (natural protein) was run?
Answer: > 80%
